For five substances, ECL signal results are on record in US20120316071A1.

For assay [1], the target named is rHuman P-Cadherin/Fc Chimera, CF (R&D Systems Cat#861-PC) (human) (UniProt P22223). Put plainly: MSD multispot ECL, antigen spotted, Fab 595.8 nM; blank spot 285.
Assay [2] shares this target. Put plainly: MSD multispot ECL, antigen spotted, Fab 37.2 nM; blank spot 199.
The target is the same in assay [3]. Put plainly: MSD multispot ECL, antigen spotted, Fab 9.3 nM; blank spot 287.
Assay [4] shares this target. As to the kind of experiment: MSD multispot ECL, antigen spotted, Fab 2383 nM; blank spot 344.
Assay [5] has the same target. As to the kind of experiment: MSD multispot ECL, antigen spotted, Fab 0.1 nM; blank spot 201.
The target is the same in assay [6]. As to the kind of experiment: MSD multispot ECL, antigen spotted, Fab […]; blank spot 234.
The target is the same in assay [7]. As to the kind of experiment: MSD multispot ECL, antigen spotted, Fab 0.6 nM; blank spot 226.
Assay [8] shares this target. As to the kind of experiment: MSD multispot ECL, antigen spotted, Fab 148.9 nM; blank spot 218.
The target in assay [9] is rHuman Erythropoietin R/Fc Chimera, CF (R&D Systems Cat#963-ER) (human) (UniProt P19235). Put plainly: ECL multispot (MSD) assay, antigen spotted on plate, 10 nM Fab.
For assay [10], the target named is rHuman P-Cadherin/Fc Chimera, CF (R&D Systems Cat#861-PC) (human) (UniProt P22223). Put plainly: MSD ECL multispot assay, antigen spotted on plate, Fab in solution; blank spot of this row 348.
Assay [11] has the same target. Put plainly: MSD ECL multispot assay, antigen spotted on plate, Fab in solution; blank spot of this row 504.
For assay [12], the target named is rHuman Notch-1/Fc Chimera, CF (R&D Systems Cat#3647-TK) (human) (UniProt P46531). Put plainly: ECL multispot (MSD) binding assay; antigen spotted on plate, Fab in solution, Ru-labelled anti-kappa detection.
The target of assay [13] is rHuman ErbB2/Fc Chimera, CF (R&D Systems Cat#1129-ER) (human) (UniProt P04626). The assay is described as above.
For assay [14], the target named is rHuman CD44/Fc Chimera, CF (R&D Systems Cat#3660-CD) (human) (UniProt P16070). Described as above.
The target of assay [15] is rHuman Erythropoietin R/Fc Chimera, CF (R&D Systems Cat#963-ER) (human) (UniProt P19235). Described as above.
The target in assay [16] is rHuman Notch-1/Fc Chimera, CF (R&D Systems Cat#3647-TK) (human) (UniProt P46531). Put plainly: ECL Multispot (MSD) assay, antigen spotted on plate, 10 nM Fab.
The target of assay [17] is rHuman EGF R/Fc Chimera, CF (R&D Systems Cat#344-ER) (human) (UniProt P00533). Put plainly: MSD multispot ECL, antigen spotted on plate, Fab at 154 nM (blank spot 447).
Assay [18] has as its target rHuman P-Cadherin/Fc Chimera, CF (R&D Systems Cat#861-PC) (human) (UniProt P22223). The description is as above.
Assay [19] addresses rHuman Notch-1/Fc Chimera, CF (R&D Systems Cat#3647-TK) (human) (UniProt P46531). The assay is described as above.
Assay [20] addresses rHuman IGF-1 sR, CF (R&D Systems Cat#391-GR) (human) (UniProt P08069). Described as above.
In assay [21] the target is rHuman ErbB2/Fc Chimera, CF (R&D Systems Cat#1129-ER) (human) (UniProt P04626). The description is as above.
Assay [22] concerns the target rHuman HGF R/c-MET/Fc Chimera, CF (R&D Systems Cat#358-MT/CF) (human) (UniProt P08581). The description is as above.
Assay [23] deals with rHuman CD44/Fc Chimera, CF (R&D Systems Cat#3660-CD) (human) (UniProt P16070). The assay is described as above.
The target in assay [24] is rHuman Erythropoietin R/Fc Chimera, CF (R&D Systems Cat#963-ER) (human) (UniProt P19235). The assay is described as above.
In assay [25] the target is rHuman EGF R/Fc Chimera, CF (R&D Systems Cat#344-ER) (human) (UniProt P00533). Put plainly: MSD multispot ECL, antigen spotted on plate, Fab at 51 nM (blank spot 335).
Assay [26] addresses rHuman P-Cadherin/Fc Chimera, CF (R&D Systems Cat#861-PC) (human) (UniProt P22223). The description is as above.
Assay [27] concerns the target rHuman Notch-1/Fc Chimera, CF (R&D Systems Cat#3647-TK) (human) (UniProt P46531). The description is as above.
In assay [28] the target is rHuman IGF-1 sR, CF (R&D Systems Cat#391-GR) (human) (UniProt P08069). The description is as above.
In assay [29] the target is rHuman ErbB2/Fc Chimera, CF (R&D Systems Cat#1129-ER) (human) (UniProt P04626). The description is as above.
Assay [30] addresses rHuman HGF R/c-MET/Fc Chimera, CF (R&D Systems Cat#358-MT/CF) (human) (UniProt P08581). The description is as above.
Assay [31] addresses rHuman CD44/Fc Chimera, CF (R&D Systems Cat#3660-CD) (human) (UniProt P16070). Described as above.
Assay [32] addresses rHuman Erythropoietin R/Fc Chimera, CF (R&D Systems Cat#963-ER) (human) (UniProt P19235). The description is as above.
For assay [33], the target named is rHuman EGF R/Fc Chimera, CF (R&D Systems Cat#344-ER) (human) (UniProt P00533). Put plainly: MSD multispot ECL, antigen spotted on plate, Fab at 6 nM (blank spot 191).
Assay [34] deals with rHuman P-Cadherin/Fc Chimera, CF (R&D Systems Cat#861-PC) (human) (UniProt P22223). Described as above.
In assay [35] the target is rHuman Notch-1/Fc Chimera, CF (R&D Systems Cat#3647-TK) (human) (UniProt P46531). The assay is described as above.
Assay [36] deals with rHuman IGF-1 sR, CF (R&D Systems Cat#391-GR) (human) (UniProt P08069). Described as above.
Assay [37] deals with rHuman ErbB2/Fc Chimera, CF (R&D Systems Cat#1129-ER) (human) (UniProt P04626). The assay is described as above.
For assay [38], the target named is rHuman HGF R/c-MET/Fc Chimera, CF (R&D Systems Cat#358-MT/CF) (human) (UniProt P08581). The assay is described as above.
Assay [39] addresses rHuman CD44/Fc Chimera, CF (R&D Systems Cat#3660-CD) (human) (UniProt P16070). Described as above.
Assay [40] addresses rHuman Erythropoietin R/Fc Chimera, CF (R&D Systems Cat#963-ER) (human) (UniProt P19235). Described as above.
In assay [41] the target is rHuman EGF R/Fc Chimera, CF (R&D Systems Cat#344-ER) (human) (UniProt P00533). Put plainly: MSD multispot ECL, antigen spotted on plate, Fab at 17 nM (blank spot 143).
Assay [42] addresses rHuman P-Cadherin/Fc Chimera, CF (R&D Systems Cat#861-PC) (human) (UniProt P22223). The description is as above.
Assay [43] deals with rHuman Notch-1/Fc Chimera, CF (R&D Systems Cat#3647-TK) (human) (UniProt P46531). The description is as above.
Assay [44] addresses rHuman IGF-1 sR, CF (R&D Systems Cat#391-GR) (human) (UniProt P08069). Described as above.
In assay [45] the target is rHuman ErbB2/Fc Chimera, CF (R&D Systems Cat#1129-ER) (human) (UniProt P04626). The description is as above.
Assay [46] deals with rHuman HGF R/c-MET/Fc Chimera, CF (R&D Systems Cat#358-MT/CF) (human) (UniProt P08581). The assay is described as above.
Assay [47] addresses rHuman CD44/Fc Chimera, CF (R&D Systems Cat#3660-CD) (human) (UniProt P16070). The assay is described as above.
Assay [48] concerns the target rHuman Erythropoietin R/Fc Chimera, CF (R&D Systems Cat#963-ER) (human) (UniProt P19235). The description is as above.

Turning to “Fab VH1-46_IGHD6-6*01_IGHJ1*01 & L6_IGKJ1*01”, the ECL signal in assay [1] worked out at 617 ECL signal; in [2], 649 ECL signal; in assay [3] it was 452 ECL signal; in assay [4], 728 ECL signal; in assay [5], 235 ECL signal; in [6], 401 ECL signal. For the same substance, the ECL signal in [7] was found to be 321 ECL signal; in assay [8] it was 687 ECL signal.

Substance “Fab VH1-46_IGHD6-6*01_IGHJ1*01 S102A/S103P/S104F/H111F & L6_IGKJ1*01” gave an ECL signal in assay [9] of 438.

Take “Fab VH1-46_IGHD6-6*01_IGHJ1*01 S102A/S103P/S104F/H111F (APFF) & L6_IGKJ1*01 S92C”: the ECL signal in assay [10] turned out to be 786; in assay [11], 930.

Turning to “Fab VH1-46_IGHD6-6*01_IGHJ1*01 S102A/S103P/S104F/H111F F29A & L6_IGKJ1*01”, the ECL signal amounted to 6090 in [12]; 1290 in assay [13]; 978 in assay [14]; 1060 in assay [15]; 374 in assay [16].

Turning to “Fab VH5-51_IGHD5-18*01>3_IGHJ4*01 & V3-4_IGLJ1*01”, the ECL signal is 1400 in [17]; 1730 in [18]; 929 in assay [19]; 1400 in [20]; 1590 in assay [21]; 1520 in assay [22]. The ECL signal in assay [23] worked out at 960; in [24] it was 1200; in assay [25] it was 816; in assay [26], 854; in assay [27], 685; in [28], 1050. The ECL signal in [29] was found to be 1250; in [30], 1040; in assay [31], 651; in assay [32] it was 750; in assay [33], 742; in [34] it was 358. The ECL signal in assay [35] was determined as 464; in assay [36], 854; in assay [37], 873; in [38] it was 831; in assay [39], 547; in assay [40], 548. Moreover, the ECL signal in [41] worked out at 805; in [42], 542; in assay [43] it was 558; in [44], 872; in [45] it was 1030; in assay [46], 914. Moreover, the ECL signal in assay [47] came out at 518; in [48], 620.
